# pIC50: −log10 of the molar value. Peptide text beside a SMILES is read from it.
# What was measured:
# 6his-Sortilin (human) = 6his-Sortilin (human) (UniProt Q99523); experiment: SPA, displacement of [3H]-neurotensin from 6his-Sortilin
# hSortilin = target: T1, hSortilin (Homo sapiens, UniProt Q99523); experiment: Neurotensin scintillation proximity assay (displacement of [3H]-neurotensin binding); conditions: displacement of 5 nM [3H]-neurotensin from 150 nM 6his-Sortilin; average of at least 2 determinations; read-out: IC50 [3H]Neurotensin SPA
# T1 sequence (Q99523 78-831): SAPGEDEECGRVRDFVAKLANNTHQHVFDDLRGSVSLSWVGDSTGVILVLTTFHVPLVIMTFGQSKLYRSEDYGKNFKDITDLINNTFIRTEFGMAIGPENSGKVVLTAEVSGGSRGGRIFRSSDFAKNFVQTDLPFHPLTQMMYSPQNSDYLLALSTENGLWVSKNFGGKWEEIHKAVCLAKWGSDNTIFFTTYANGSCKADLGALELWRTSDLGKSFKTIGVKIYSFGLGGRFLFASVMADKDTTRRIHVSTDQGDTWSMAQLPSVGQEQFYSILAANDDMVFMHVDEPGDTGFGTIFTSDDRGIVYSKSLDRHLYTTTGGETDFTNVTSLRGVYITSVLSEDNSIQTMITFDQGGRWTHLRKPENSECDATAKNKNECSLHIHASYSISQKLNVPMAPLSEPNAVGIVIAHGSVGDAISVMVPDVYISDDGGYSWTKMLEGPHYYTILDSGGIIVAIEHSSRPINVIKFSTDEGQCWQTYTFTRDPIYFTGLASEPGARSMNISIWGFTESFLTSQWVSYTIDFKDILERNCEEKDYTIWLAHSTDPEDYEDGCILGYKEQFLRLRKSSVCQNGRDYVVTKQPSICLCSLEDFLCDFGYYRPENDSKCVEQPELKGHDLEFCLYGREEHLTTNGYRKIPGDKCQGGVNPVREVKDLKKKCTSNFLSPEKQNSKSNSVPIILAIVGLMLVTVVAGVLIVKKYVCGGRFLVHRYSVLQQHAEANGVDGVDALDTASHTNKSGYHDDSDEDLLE
# Description: The data of exemplified compounds of the invention tested in a Neurotensin (NTS) scintillation proximity assay (SPA). NTS, which is a 13 amino acid neuropeptide, is a sortilin ligand. The IC50 is a measure of the amount of the compound required to inhibit the binding of NTS to sortilin by 50%.
# Compound affinity was determined by measuring the displacement of [^3H]-neurotensin binding to hSortilin in SPA format. Total volume of 40 μl in 50 mM HEPES pH 7.4 assay buffer containing 100 mM NaCl, 2.0 mM CaCl2, 0.1% BSA and 0.1% Tween-20. Compound pre-incubation for 30 minutes at room temperature with 150 nM of 6his-Sortilin before 5 nM [3H]-Neurotensin and Ni chelate imaging beads (Perkin Elmer) were added, after 6 hours the plate was read on a ViewLux with 360 s exposure time. Dose-response evaluation of compounds was performed with 8 concentrations of drugs (covering 3 decades). IC50 values were calculated by nonlinear regression using the sigmoid concentration-response (variable slope) using CDD Vault software. All values reported are average of at least 2 determinations.
Compound,pIC50 (6his-Sortilin (human)),pIC50 (hSortilin)
"(S)-2-((2S,3S)-2-((S)-3-(4-Hydroxyphenyl)-2-((S)-piperazine-2-carboxamido)propanamido)-3-methylpentanamido)-5,5-dimethylhexanoic acid (peptide)",7.00,–
"(S)-2-((2S,3S)-2-((S)-3-(4-Hydroxyphenyl)-2-((S)-pyrrolidine-2-carboxamido)propanamido)-3-methylpentanamido)-5,5-dimethylhexanoic acid (peptide)",7.05,–
"(S)-2-((S)-2-((S)-3-(4-Hydroxyphenyl)-2-((S)-pyrrolidine-2-carboxamido)propanamido)-3-morpholinopropanamido)-5,5-dimethylhexanoic acid (peptide)",6.80,–
"(S)-2-((S)-2-((S)-3-(4-Hydroxyphenyl)-2-((S)-pyrrolidine-2-carboxamido)propanamido)-3-(thiophen-3-yl)propanamido)-5,5-dimethylhexanoic acid (peptide)",6.85,–
"(S)-2-((S)-2-((S)-5-Amino-5-oxo-2-((S)-pyrrolidine-2-carboxamido)pentanamido)-3-(thiazol-4-yl)propanamido)-5,5-dimethylhexanoic acid (peptide)",7.22,–
"(S)-2-((S)-2-((S)-4-Amino-4-oxo-2-((S)-pyrrolidine-2-carboxamido)butanamido)-3-(thiazol-4-yl)propanamido)-5,5-dimethylhexanoic acid (peptide)",7.05,–
"(S)-2-((S)-2-((S)-3-(4-Hydroxyphenyl)-2-((S)-pyrrolidine-2-carboxamido)propanamido)-3-(thiazol-4-yl)propanamido)-5,5-dimethylhexanoic acid (peptide)",7.15,–
"CC[C@H](C)[C@H](NC(=O)[C@H](Cc1ccc(O)cc1)NC(=O)[C@@H]1CNCCO1)C(=O)N[C@@H](CCC(C)(C)C)C(=O)O [Example 22, (S)-2-((2S,3S)-2-((S)-3-(4-Hydroxyphenyl)-2-((S)-morpholine-2-carboxamido)propan amido)-3-methylpentanamido)-5,5-dimethylhexanoic acid]",–,7.15
"(S)-2-((S)-2-((S)-3-(4-Hydroxyphenyl)-2-((S)-pyrrolidine-2-carboxamido)propanamido)-3-(1H-indol-3-yl)propanamido)-5,5-dimethylhexanoic acid (peptide)",7.22,–
"CC[C@H](C)[C@H](NC(=O)[C@H](Cc1ccc(O)cc1)NC(=O)[C@H]1CCCO1)C(=O)N[C@@H](CCC(F)(F)F)C(=O)O [Example 2, (2S)-5,5,5-trifluoro-2-[(2S,3S)-2-[(S)-3-(4-hydroxyphenyl)-2-{[(2R)-oxolan-2-yl]formamido}propanamido]-3-methylpentanamido] pentoic acid]",–,5.54
"(S)-2-((S)-2-((S)-3-(4-Hydroxyphenyl)-2-((S)-pyrrolidine-2-carboxamido)propanamido)-3-(1-methyl-1H-imidazol-4-yl)propanamido)-5,5-dimethylhexanoic acid (peptide)",6.43,–
"CC(C)(C)CC[C@H](NC(=O)[C@H](Cc1cscn1)NC(=O)[C@H](CCC(N)=O)NC(=O)[C@@H]1CCCN1)C(=O)O [Example 11, (S)-2-((S)-2-((S)-5-Amino-5-oxo-2-((S)-pyrrolidine-2-carboxamido)pentan amido)-3-(thiazol-4-yl)propanamido)-5,5-dimethylhexanoic acid] (HELM PEPTIDE1{P.Q.[O=C([C@H](Cc1cscn1)N[*:1])[*:2]].[CC(C)(C)CC[C@H](N[*:1])C(=O)O]}$$$$V2.0)",–,7.22
"CC[C@H](C)[C@H](NC(=O)[C@H](Cc1ccc(O)cc1)NC(=O)[C@H]1CN(C(C)=O)CCO1)C(=O)N[C@@H](CCC(F)(F)F)C(=O)O [Example 4, (S)-2-((2S,3S)-2-((S)-2-((R)-4-Acetylmorpholine-2-carboxamido)-3-(4-hydroxyphenyl)propanamido)-3-methylpentanamido)-5,5,5-trifluoropentanoic acid]",–,5.77
"CC[C@H](C)[C@H](NC(=O)[C@H](Cc1ccc(O)cc1)NC(=O)[C@H]1CNCCN1)C(=O)N[C@@H](CCC(C)(C)C)C(=O)O [Example 18, (S)-2-((2S,3S)-2-((S)-3-(4-Hydroxyphenyl)-2-((R)-piperazine-2-carboxamido)propan amido)-3-methylpentanamido)-5,5-dimethylhexanoic acid] (HELM PEPTIDE1{[O=C([C@H]1CNCCN1)[*:2]].Y.I.[CC(C)(C)CC[C@H](N[*:1])C(=O)O]}$$$$V2.0)",–,6.96
"CC(C)(C)CC[C@H](NC(=O)[C@H](Cc1ccncc1)NC(=O)[C@H](Cc1ccc(O)cc1)NC(=O)[C@@H]1CCCN1)C(=O)O [Example 8, (S)-2-((S)-2-((S)-3-(4-Hydroxyphenyl)-2-((S)-pyrrolidine-2-carboxamido)propan amido)-3-(pyridin-4-yl)propanamido)-5,5-dimethylhexanoic acid] (HELM PEPTIDE1{P.Y.[O=C([C@H](Cc1ccncc1)N[*:1])[*:2]].[CC(C)(C)CC[C@H](N[*:1])C(=O)O]}$$$$V2.0)",–,6.70

# Further lines, results first:
pIC50 (6his-Sortilin (human)),pIC50 (hSortilin),Compound
7.05,–,"(S)-2-((2S,3S)-2-((S)-3-(4-Hydroxyphenyl)-2-((R)-morpholine-2-carboxamido)propanamido)-3-methylpentanamido)-5,5-dimethylhexanoic acid (peptide)"
6.96,–,"(S)-2-((2S,3S)-2-((S)-3-(4-Hydroxyphenyl)-2-((R)-piperazine-2-carboxamido)propanamido)-3-methylpentanamido)-5,5-dimethylhexanoic acid (peptide)"
7.00,–,"(S)-2-((S)-2-((S)-3-(4-Hydroxyphenyl)-2-((S)-pyrrolidine-2-carboxamido)propanamido)-3-(1-methyl-1H-imidazol-5-yl)propanamido)-5,5-dimethylhexanoic acid.di-formic acid (peptide)"
7.00,–,"(S)-2-((2S,3S)-2-((S)-3-(4-Hydroxyphenyl)-2-((R)-morpholine-3-carboxamido)propanamido)-3-methylpentanamido)-5,5-dimethylhexanoic acid (peptide)"
6.70,–,"(S)-2-((S)-2-((S)-3-(4-Hydroxyphenyl)-2-((S)-pyrrolidine-2-carboxamido)propanamido)-3-(pyridin-4-yl)propanamido)-5,5-dimethylhexanoic acid (peptide)"
7.15,–,"(S)-2-((2S,3S)-2-((S)-3-(4-Hydroxyphenyl)-2-((S)-morpholine-2-carboxamido)propanamido)-3-methylpentanamido)-5,5-dimethylhexanoic acid (peptide)"
–,6.43,"Cn1cnc(C[C@H](NC(=O)[C@H](Cc2ccc(O)cc2)NC(=O)[C@@H]2CCCN2)C(=O)N[C@@H](CCC(C)(C)C)C(=O)O)c1 [Example 7, (S)-2-((S)-2-((S)-3-(4-Hydroxyphenyl)-2-((S)-pyrrolidine-2-carboxamido)propan amido)-3-(1-methyl-1H-imidazol-4-yl)propanamido)-5,5-dimethylhexanoic acid] (HELM PEPTIDE1{P.Y.[Cn1cnc(C[C@H](N[*:1])C(=O)[*:2])c1].[CC(C)(C)CC[C@H](N[*:1])C(=O)O]}$$$$V2.0)"
–,6.72,"CC[C@H](C)[C@H](NC(=O)[C@H](Cc1ccc(O)cc1)NC(C)=O)C(=O)N[C@@H](CCC(C)(C)C)C(=O)O [Example 28, (S)-2-((2S,3S)-2-((S)-2-Acetamido-3-(4-hydroxyphenyl)propanamido)-3-methylpentanamido)-5,5-dimethylhexanoic acid]"
